Measurements published in the Human Domainome abundance scans (Beltran et al. 2025).
± gives the uncertainty stated by the source.

B1: RUN and FYVE domain-containing protein 1, residues 639 to 698; numbered along this chain, Q96T51 (parent)
chain: WLKDDEATHCRQCEKEFSISRRKHHCRNCGHIFCNTCSSNELALPSYPKPVRVCDSCHTL

Variants of: B1
Test: abundance fitness (aPCA) (normalised: wild type 0, dead -1); higher = more abundant; growth selection in yeast, the domain comes from the species named
Details: Homo sapiens

| Variant | abundance fitness |
| --- | --- |
| WLKDDEATHCRQCEKEFSISRRKHHCRNCGHIVCNTCSSNELALPSYPKPVRVCDSCHTL | 0.076 ± 0.038 |
| WLKDDEATHCRQCEKEFSISRRKHHCRNCGHIGCNTCSSNELALPSYPKPVRVCDSCHTL | -0.537 ± 0.069 |
| WLKDDEATHCRQCEKEFSISRRKHHCRNCGHITCNTCSSNELALPSYPKPVRVCDSCHTL | -0.238 ± 0.053 |
| WLKDDEATHCRQCEKEFSISRRKHHCRNCGHIHCNTCSSNELALPSYPKPVRVCDSCHTL | -0.458 ± 0.16 |
| WLKDDEATHCRQCEKEFSISRRKHHCRNCGHIQCNTCSSNELALPSYPKPVRVCDSCHTL | -0.38 ± 0.061 |
| WLKDDEATHCRQCEKEFSISRRKHHCRNCGHIECNTCSSNELALPSYPKPVRVCDSCHTL | -0.576 ± 0.086 |
| WLKDDEATHCRQCEKEFSISRRKHHCRNCGHIWCNTCSSNELALPSYPKPVRVCDSCHTL | -0.455 ± 0.058 |
| WLKDDEATHCRQCEKEFSISRRKHHCRNCGHIPCNTCSSNELALPSYPKPVRVCDSCHTL | -0.888 ± 0.091 |
| WLKDDEATHCRQCEKEFSISRRKHHCRNCGHIDCNTCSSNELALPSYPKPVRVCDSCHTL | -0.573 ± 0.14 |
| WLKDDEATHCRQCEKEFSISRRKHHCRNCGHIMCNTCSSNELALPSYPKPVRVCDSCHTL | -0.378 ± 0.051 |
| WLKDDEATHCRQCEKEFSISRRKHHCRNCGHICCNTCSSNELALPSYPKPVRVCDSCHTL | 0.059 ± 0.11 |
| WLKDDEATHCRQCEKEFSISRRKHHCRNCGHIKCNTCSSNELALPSYPKPVRVCDSCHTL | -0.602 ± 0.069 |
| WLKDDEATHCRQCEKEFSISRRKHHCRNCGHIYCNTCSSNELALPSYPKPVRVCDSCHTL | 0.005 ± 0.11 |
| WLKDDEATHCRQCEKEFSISRRKHHCRNCGHIFCNTISSNELALPSYPKPVRVCDSCHTL | -0.825 ± 0.17 |
| WLKDDEATHCRQCEKEFSISRRKHHCRNCGHIFCNTMSSNELALPSYPKPVRVCDSCHTL | -0.567 ± 0.064 |
| WLKDDEATHCRQCEKEFSISRRKHHCRNCGHIFCNTGSSNELALPSYPKPVRVCDSCHTL | -0.471 ± 0.047 |
| WLKDDEATHCRQCEKEFSISRRKHHCRNCGHIFCNTLSSNELALPSYPKPVRVCDSCHTL | -0.719 ± 0.049 |
| WLKDDEATHCRQCEKEFSISRRKHHCRNCGHIFCNTHSSNELALPSYPKPVRVCDSCHTL | -0.325 ± 0.12 |
| WLKDDEATHCRQCEKEFSISRRKHHCRNCGHIFCNTSSSNELALPSYPKPVRVCDSCHTL | -0.568 ± 0.052 |
| WLKDDEATHCRQCEKEFSISRRKHHCRNCGHIFCNTTSSNELALPSYPKPVRVCDSCHTL | -0.627 ± 0.061 |
| WLKDDEATHCRQCEKEFSISRRKHHCRNCGHIFCNTFSSNELALPSYPKPVRVCDSCHTL | -0.649 ± 0.13 |
| WLKDDEATHCRQCEKEFSISRRKHHCRNCGHIFCNTYSSNELALPSYPKPVRVCDSCHTL | -0.615 ± 0.16 |
| WLKDDEATHCRQCEKEFSISRRKHHCRNCGHIFCNTNSSNELALPSYPKPVRVCDSCHTL | -0.282 ± 0.26 |

| Variant | abundance fitness |
| --- | --- |
| WLKDDEATHCRQCEKEFSISRRKHHCRNCGHIFCNTPSSNELALPSYPKPVRVCDSCHTL | -0.537 ± 0.068 |
| WLKDDEATHCRQCEKEFSISRRKHHCRNCGHIFCNTQSSNELALPSYPKPVRVCDSCHTL | -0.557 ± 0.06 |
| WLKDDEATHCRQCEKEFSISRRKHHCRNCGHIFCNTKSSNELALPSYPKPVRVCDSCHTL | -0.658 ± 0.072 |
| WLKDDEATHCRQCEKEFSISRRKHHCRNCGHIFCNTASSNELALPSYPKPVRVCDSCHTL | -0.326 ± 0.069 |
| WLKDDEATHCRQCEKEFSISRRKHHCRNCGHIFCNTRSSNELALPSYPKPVRVCDSCHTL | -0.553 ± 0.047 |
| WLKDDEATHCRQCEKEFSISRRKHHCRNCGHVFCNTCSSNELALPSYPKPVRVCDSCHTL | 0.04 ± 0.045 |
| WLKDDEATHCRQCEKEFSISRRKHHCRNCGHIFCNWCSSNELALPSYPKPVRVCDSCHTL | 0.168 ± 0.041 |
| WLKDDEATHCRQCEKEFSISRRKHHCRNCGHIFCNACSSNELALPSYPKPVRVCDSCHTL | 0.349 ± 0.041 |
| WLKDDEATHCRQCEKEFSISRRKHHCRNCGHIFCNFCSSNELALPSYPKPVRVCDSCHTL | 0.208 ± 0.064 |
| WLKDDEATHCRQCEKEFSISRRKHHCRNCGHIFCNNCSSNELALPSYPKPVRVCDSCHTL | 0.276 ± 0.072 |
| WLKDDEATHCRQCEKEFSISRRKHHCRNCGHIFCNLCSSNELALPSYPKPVRVCDSCHTL | 0.3 ± 0.033 |
| WLKDDEATHCRQCEKEFSISRRKHHCRNCGHIFCNYCSSNELALPSYPKPVRVCDSCHTL | 0.177 ± 0.043 |
| WLKDDEATHCRQCEKEFSISRRKHHCRNCGHIFCNPCSSNELALPSYPKPVRVCDSCHTL | 0.202 ± 0.048 |
| WLKDDEATHCRQCEKEFSISRRKHHCRNCGHIFCNDCSSNELALPSYPKPVRVCDSCHTL | 0.401 ± 0.048 |
| WLKDDEATHCRQCEKEFSISRRKHHCRNCGHIFCNHCSSNELALPSYPKPVRVCDSCHTL | 0.287 ± 0.075 |
| WLKDDEATHCRQCEKEFSISRRKHHCRNCGHIFCNGCSSNELALPSYPKPVRVCDSCHTL | 0.444 ± 0.032 |
| WLKDDEATHCRQCEKEFSISRRKHHCRNCGHIFCNKCSSNELALPSYPKPVRVCDSCHTL | 0.254 ± 0.076 |
| WLKDDEATHCRQCEKEFSISRRKHHCRNCGHIFCNQCSSNELALPSYPKPVRVCDSCHTL | 0.403 ± 0.037 |
| WLKDDEATHCRQCEKEFSISRRKHHCRNCGHIFCNRCSSNELALPSYPKPVRVCDSCHTL | 0.351 ± 0.033 |
| WLKDDEATHCRQCEKEFSISRRKHHCRNCGHIFCNVCSSNELALPSYPKPVRVCDSCHTL | 0.342 ± 0.029 |
| WLKDDEATHCRQCEKEFSISRRKHHCRNCGHIFCNSCSSNELALPSYPKPVRVCDSCHTL | 0.214 ± 0.038 |
| WLKDDEATHCRQCEKEFSISRRKHHCRNCGHIFCNICSSNELALPSYPKPVRVCDSCHTL | 0.083 ± 0.076 |
